21 molecules from patent publication US20160305952A1 (ROCHE SEQUENCING SOLUTIONS, published 2016) can be followed below.

The labels stand for the following.
B1: NH2-ADYLAEYHGG-COOH (peptide)
peptide: H-ADYLAEYHGG-OH
notes: free peptide, C-terminal carboxylic acid
B2: NH2-SAWSHPQFEK-COOH (peptide)
peptide: H-SAWSHPQFEK-OH
notes: free peptide, C-terminal carboxylic acid; bought from IBA; also called Strep-tag II peptide; Strep-Tag II
B3: NH2-NSFDDWLAKGG-COOH (peptide)
peptide: H-NSFDDWLAKGG-OH
notes: as for B1
B4: NH2-WTHPQFEQK-COOH (peptide)
peptide: H-WTHPQFEQK-OH
notes: as for B1

Where no end group is shown, it is not given here.

Chain of Taq polymerase (P19821 whole entry): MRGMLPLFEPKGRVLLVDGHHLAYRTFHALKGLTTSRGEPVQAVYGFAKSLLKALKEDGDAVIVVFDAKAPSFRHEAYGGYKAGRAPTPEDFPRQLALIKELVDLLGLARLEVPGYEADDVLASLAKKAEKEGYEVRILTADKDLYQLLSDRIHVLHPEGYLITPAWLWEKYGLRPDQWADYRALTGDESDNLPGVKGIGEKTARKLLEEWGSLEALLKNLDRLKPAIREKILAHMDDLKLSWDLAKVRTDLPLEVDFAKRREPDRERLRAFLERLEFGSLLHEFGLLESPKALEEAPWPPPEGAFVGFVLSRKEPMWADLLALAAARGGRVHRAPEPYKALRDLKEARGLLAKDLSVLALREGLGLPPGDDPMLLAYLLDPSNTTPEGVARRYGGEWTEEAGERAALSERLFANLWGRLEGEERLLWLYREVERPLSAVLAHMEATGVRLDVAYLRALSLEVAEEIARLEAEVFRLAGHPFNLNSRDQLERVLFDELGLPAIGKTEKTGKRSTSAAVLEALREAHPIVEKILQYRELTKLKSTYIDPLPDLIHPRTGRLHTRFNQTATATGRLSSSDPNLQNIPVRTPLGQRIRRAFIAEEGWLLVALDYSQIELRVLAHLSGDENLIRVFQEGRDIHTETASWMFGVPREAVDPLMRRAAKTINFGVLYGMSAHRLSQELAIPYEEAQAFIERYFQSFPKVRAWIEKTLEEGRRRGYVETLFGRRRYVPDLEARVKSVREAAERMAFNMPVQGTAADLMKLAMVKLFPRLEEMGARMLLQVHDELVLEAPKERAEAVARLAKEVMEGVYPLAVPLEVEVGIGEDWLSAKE

The target in one experiment is T1, Prostate Specific Antigen (human, UniProt P07288 25-261).
T1 construct: also called PSA
T1 sequence (P07288 25-261 limits assumed): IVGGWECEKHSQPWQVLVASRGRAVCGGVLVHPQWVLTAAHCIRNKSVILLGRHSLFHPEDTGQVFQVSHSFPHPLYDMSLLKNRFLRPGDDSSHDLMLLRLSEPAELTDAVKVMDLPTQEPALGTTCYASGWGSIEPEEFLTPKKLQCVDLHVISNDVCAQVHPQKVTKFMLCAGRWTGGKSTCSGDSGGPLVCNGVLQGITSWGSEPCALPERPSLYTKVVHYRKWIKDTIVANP
The experiment can be described thus: peptide array, extension library, 3Z linker.
On to TDFEVYLPK (also: array-bound via 3Z linker), for which the binding result is “binds”.

In the case of NGFEVYLPG (also: array-bound via 3Z linker), the binding result was “binds”.

Turning to GQFEVYLPG (also: array-bound via 3Z linker), the binding result is listed as “binds”.

A further experiment concerns the target Taq polymerase (UniProt P19821 1-832). The experiment can be described thus: peptide array, extension library, 3Z linker.
Take RSWDWDWKK (also: array-bound via 3Z linker): the binding result was “binds”.

With YKWKEDWKW (also: array-bound via 3Z linker), the binding result was “binds”.

Regarding GEHYFEFQQ (also: array-bound via 3Z linker), the binding result was “binds”.

In the case of YSWTKVKDY (also: array-bound via 3Z linker), the binding result was “binds”.

Take GQHEFSFGT (also: array-bound via 3Z linker): the binding result was “binds”.

On to GEHYFEFAP (also: array-bound via 3Z linker), for which the binding result was “binds”.

Regarding QQHYFEFEK (also: array-bound via 3Z linker), the binding result is reported as “binds”.

Take YEHEFSFGT (also: array-bound via 3Z linker): the binding result is on record as “binds”.

On to KKWDWDWKW (also: array-bound via 3Z linker), for which the binding result is given as “binds”.

For FGWKAEKFN (also: array-bound via 3Z linker), the binding result is reported as “binds”.

On to YEWTKVKNY (also: array-bound via 3Z linker), for which the binding result is reported as “binds”.

For the next experiment, the target named is T2, streptavidin (UniProt P22629 37-163, limits assumed).
T2 construct: amine-coupled to a CM5 chip for SPR; also called SA
T2 sequence (P22629 37-163 limits assumed): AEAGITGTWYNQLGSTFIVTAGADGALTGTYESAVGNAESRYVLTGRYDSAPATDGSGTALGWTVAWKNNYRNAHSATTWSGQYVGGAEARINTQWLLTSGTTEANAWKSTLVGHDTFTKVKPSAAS
Put plainly: SPR, Biacore X100, streptavidin on CM5 chip, peptide in solution. The text has this:
A selection of streptavidin peptide binders listed in Table 15 were synthesized using standard column-based synthesis techniques by UW Biotechnology center (Madison, Wis.) or by Peptide2.0 (Chantilly, Va.) at 98-99% purity. Strep-tag II peptide NH2-[…]-COOH was purchased from IBA GmbH (Goettingen, Germany). Synthesized peptides were then characterized by Surface Plasmon Resonance (SPR) to identify binding characteristics including the association rate constant (kₛ), dissociation rate constant (kd), and equilibrium dissociation […] (kd/kₐ=KD). In one aspect, SPR experiments were performed by using Biacore X100 instrument (GE Healthcare). Preliminarily, 60 μl of 100 μg/ml streptavidin in 10 mM Na-acetate, pH5.0 was immobilized to flow cell 2 (Fc2) of a sensor chip CM5 (GE Healthcare) using Amine Coupling Kit (GE Healthcare) at 20° C. for 6 min. Peptide stock solutions were prepared at 5 or 10 mM concentration in water and diluted in HBS-EP+ (GE Healthcare) buffer before SPR experiments. Peptide binding was performed in a multiple kinetics mode using HBS-EP+ as a running buffer and 0.2 M NaCl, 10 mM NaOH or 10 mM HCl-glycine, […] as regeneration buffer. Binding kinetics parameters were calculated with Biacore X100 software.
With B1, the Kd was 96 µM. This lies in the double-digit micromolar range.

Consider H-AFPDYLAEYHGG-NH2 (free peptide) [NH2-AFPDYLAEYHGG-amide], for which binding was characterised by a dissociation constant (Kd) of 0.043 µM, the koff amounted to 0.00128 s⁻¹ and the kon was found to be 30100 M⁻¹ s⁻¹.

In the case of B2, the Kd was determined as 49.8 µM. This lies in the double-digit micromolar range.

H-WTHPQFEQPKA-NH2 (free peptide) [NH2-WTHPQFEQPKA-amide]: binding was characterised by a dissociation constant (Kd) of 7.9 µM.

B3 yielded a Kd of 11.3 µM.

For H-AFDYLAQYHGG-NH2 (free peptide) [NH2-AFDYLAQYHGG-amide], the Kd was determined as 1.52 µM, the koff amounted to 0.0354 s⁻¹ and the kon stood at 23300 M⁻¹ s⁻¹.

In turn, B4 yielded a Kd of 15.5 µM. This counts as double-digit micromolar.

The term Kd denotes the equilibrium constant for the complex coming apart. Low readings indicate higher affinity, high ones lower affinity. Usually koff stands for the first-order rate constant of dissociation. Higher therefore signals a short-lived complex. As usually defined, the kon is a measure of how fast the partners come together. Higher therefore signals faster complex formation.
